Experimental data from patent US8834890B2, “Siderophore conjugate immunogenic compositions and vaccines” (University of Florida Research Foundation, Inc., priority 2009, dated 2014).

B1: OVA: unconjugated ovalbumin, control in the competitive binding ELISA (protein, UniProt P01012 2-386, looked up)
Ovalbumin: GSIGAASMEFCFDVFKELKVHHANENIFYCPIAIMSALAMVYLGAKDSTRTQINKVVRFDKLPGFGDSIEAQCGTSVNVHSSLRDILNQITKPNDVYSFSLASRLYAEERYPILPEYLQCVKELYRGGLEPINFQTAADQARELINSWVESQTNGIIRNVLQPSSVDSQTAMVLVNAIVFKGLWEKAFKDEDTQAMPFRVTEQESKPVQMMYQIGLFRVASMASEKMKILELPFASGTMSMLVLLPDEVSGLEQLESIINFEKLTEWTSSNVMEERKIKVYLPRMKMEEKYNLTSVLMAMGITDVFSSSANLSGISSAESLKISQAVHAAHAEINEAGREVVGSAEAGVDAASVSEEFRADHPFLFCIKHIATNAVLFFGRCVSP

How the values were obtained:
[1] = Iron clearance in non-iron-overloaded, bile-duct cannulated rats; type: in vivo, Sprague-Dawley rats; settings: 75 μmol/kg s.c.
Protocol: To support this idea, bile duct-cannulated rats were given vibriobactin (3) subcutaneously (s.c.) at a dose of 75 μmol/kg. The rodents' bile and urine were collected for 48 h to determine if vibriobactin sequestered and promoted the excretion of iron. The iron content of the bile and urine were determined using atomic absorption spectroscopy. This model has been used for many years to evaluate the efficiency with which iron chelators promote the excretion of iron from animals [Bergeron, R. J.; Streiff, R. R.; Creary, E. A.; Daniels, R. D., Jr.; King, W.; Luchetta, G.; Wiegand, J.; Moerker, T.; Peter, H. H. A Comparative Study of the Iron-Clearing Properties of Desferrithiocin Analogues with Desferrioxamine B in a Cebus Monkey Model. Blood 1993, 81, 2166-2173 and Bergeron, R. J.; Streiff, R. R.; Wiegand, J.; Vinson, J. R. T.; Luchetta, G.; Evans, K. M.; Peter, H.; Jenny, H.-B. A Comparative Evaluation of Iron Clearance Models. […]
Four rats were subjected to bile duct-cannulation as previously described. […] The iron content of the bile and urine were assessed by atomic absorption spectroscopy. Iron clearing efficiency was calculated as set forth elsewhere [Bergeron, R. J.; Wiegand, J.; McManis, J. S.; McCosar, B. H.; Weimar, W. R.; Brittenham, G. M.; Smith, R. E. Effects of C-4 Stereochemistry and C-4′ Hydroxylation on the Iron Clearing Efficiency and Toxicity of Desferrithiocin Analogues. […]

[2] = tested on: BSA-VIB antigen; test: Competitive binding ELISA of purified monoclonal antibodies
Chain of BSA-VIB antigen (P02769 25-607): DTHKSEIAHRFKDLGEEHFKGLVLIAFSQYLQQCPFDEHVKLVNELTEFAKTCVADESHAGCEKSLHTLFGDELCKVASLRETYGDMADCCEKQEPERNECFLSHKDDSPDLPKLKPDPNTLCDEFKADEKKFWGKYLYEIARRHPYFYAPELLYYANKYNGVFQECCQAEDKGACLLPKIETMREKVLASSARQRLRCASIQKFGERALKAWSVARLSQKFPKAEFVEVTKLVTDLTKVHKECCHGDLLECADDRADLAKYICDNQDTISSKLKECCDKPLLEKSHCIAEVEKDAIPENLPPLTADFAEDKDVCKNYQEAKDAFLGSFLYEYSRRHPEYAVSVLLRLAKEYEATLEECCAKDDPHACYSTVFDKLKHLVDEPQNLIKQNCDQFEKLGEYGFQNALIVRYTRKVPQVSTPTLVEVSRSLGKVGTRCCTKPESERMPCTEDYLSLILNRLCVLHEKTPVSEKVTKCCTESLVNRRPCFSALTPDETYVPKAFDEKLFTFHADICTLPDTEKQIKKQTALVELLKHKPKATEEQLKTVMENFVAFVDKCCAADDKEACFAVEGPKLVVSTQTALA
Protocol: Competitive binding ELISA studies using the purified mAb were conducted. The mAb were first incubated with varying concentrations of the OVA-VIB antigen, from 0-250 μg/mL, prior to being transferred to an ELISA plate that had been coated with the BSA-VIB antigen.
In brief, the polypropylene incubation plate was blocked with 300 μL of blocking buffer (1% BSA in PBS with 0.02% azide) and was allowed to incubate overnight at 4° C. The following day, the blocking buffer was removed (flicked) from the plate, and the plate was blotted on a paper towel. A 96-well ELISA plate was coated with the BSA-VIB antigen (10 μg/mL, 50 μL/well) that had been diluted in PBS with 0.02% azide. After incubating overnight at 4° C., the plate was washed 4 times (300 μL/wash) as described above, blocked with 300 μL of blocking buffer for 1 h, and washed again. […]

[3] = tested on: BSA-VIB antigen; test: Competitive binding ELISA of polyclonal serum from immunized mice
Protocol: In the competitive binding ELISA, sera from immunized mice or non-immunized mice were first incubated with potential antigens f-g, or with OVA-VIB, at antigen concentrations ranging from 0-250 μg/mL. If an antigen is an effective competitor, it will bind to the antibody during this initial incubation, leaving less antibody available to bind to a second antigen coated on the ELISA plate. This “competition” will be reflected in lower p-nitrophenol optical density values.
Competitive binding ELISAs were performed on 1) serum from immunized mice that contained polyclonal antibodies, and 2) purified mAb derived from the cloning of 5A6-2D5 and 2F10-1A9. Medium was used as a negative control, while unconjugated OVA (10 μg/mL, 50 μL/well) served as a […] for the competitive binding ELISA of the polyclonal serum (Table 2) and purified mAb (Table 6). Two types of plates were utilized: a conical bottom polypropylene plate was used for the incubation of the antibody-antigen mixture, whereas a 96-well MAXISORP plate (a high protein-binding capacity polystyrene multi-well ELISA plate) was used for the ELISA.
In brief, the polypropylene incubation plate was blocked with 300 μL of blocking buffer (1% BSA in PBS with 0.02% azide) and was allowed to incubate overnight at 4° C. The following day, the blocking buffer was removed (flicked) from the plate, and the plate was blotted on a paper towel. A 96-well ELISA plate was coated with the BSA-VIB antigen (10 μg/mL, 50 μL/well) that had been diluted in PBS with 0.02% azide. After incubating overnight at 4° C., the plate was washed 4 times (300 μL/wash) as described above, blocked with 300 μL of blocking buffer for 1 h, and washed again.
The OVA-VIB antigen was diluted in blocking buffer in micro centrifuge tubes at antigen concentrations ranging from 0-250 μg/mL. The diluted antigens (50 μL/well) were transferred from the micro centrifuge tubes to the polypropylene incubation plate that had been blocked and washed. Fifty microliters of the diluted polyclonal mouse serum (1:10,000 dilution) or mAb (0.11 μg protein/mL) were added to the incubation plate wells containing the diluted OVA-VIB antigen. The polypropylene plate was then incubated on a rocking platform for 2 h at room temperature, allowing time for the antigen-antibody complexes to form.
A portion of the antigen/antibody mixture (50 μL) was transferred from the polypropylene incubation plate to the BSA-VIB-coated ELISA plate that had been blocked and washed. The ELISA plate was incubated with gentle agitation for 1 h at room temperature and was washed 4 times with the EWB. […] The ELISA plate was allowed to incubate with gentle agitation for 1 h at room temperature and was read at 405 nm, tracking the OD of the yellow water-soluble product, p-nitrophenol. […]

[4] = against the BSA-VIB antigen, 10 μg/mL

Molecule	iron sequestration in vivo (in words) [1]	iron clearing efficiency ([1]; bile and urine collected 48 h)	optical density of mAb incubated with OVA greater than mAb first incubated with OVA-VIB at the same concentration [2, 4]	effectiveness as competitor (in words) ([2]; purified mAb, antigen 0-250 μg/mL)	BSA-VIB Antigen: Optical Density at 405 nm ([3]; M1 serum 1:10,000 incubated with unconjugated OVA 10 μg/mL)	BSA-VIB Antigen: Optical Density at 405 nm ([3]; M2 serum 1:10,000 incubated with unconjugated OVA 10 μg/mL)	optical density of serum incubated with OVA greater than serum first incubated with OVA-VIB at the same concentration [3, 4]	effectiveness as competitor (in words) ([3]; sera from immunized mice, antigen 0-250 μg/mL)
CC1OC(c2cccc(O)c2O)=NC1C(=O)NCCCN(CCCNC(=O)c1cccc(O)c1O)C(=O)C1N=C(c2cccc(O)c2O)OC1C (centres unmarked) [Compound 3, vibriobactin]	found to sequester iron in vivo	4.3±1.1%						
B1			approximately 90%	not an effective competitor	1.152	1.655	92%	not an effective competitor
